Results on 17 sequences are retold here after a protein production outcome set (Wang et al. 2014).

A short description of the data set: label from the status in PepcDB records.

Take “MTAFRQRPLRLGHRGAPLKAKENTLESFRLALEAGLDGVELDVWPTRDGVFAVRHDPDTPLGPVFQVDYADLKAQEPDLPRLEEVLALKEAFPQAVFNVELKSFPGLGEEAARRLAALLRGREGVWVSSFDPLALLALRKAAPGLPLGFLMAEDHSALLPCLGVEAVHPHHALVTEEAVAGWRKRGLFVVAWTVNEEGEARRLLALGLDGLIGDRPEVLLPLGG”: the protein production result was “not failed”. Then “MTAGGTMTLKITFLGSGSSFAIGPENYQSNVLLELENDTLLIDAGTDIKYSLRDQGLSYKDIKNIYISHLHYDHCGGLEWFALITYFDPNLSHKPCLIASDKIINELWDKSLSGGLSTLPHERANLSAFFDVKAVKQYEGFVWRSIKFKLVQTVHYYSEYELMPSFGLIFSYNKSRILFTSDTQSCPVQLISFYEESDIIFHDCETTESKSGVHAHYSELVKLPSHLKKKMWLYHYNPGKLPNAKKDGFLGFVAKGQSFVF”, with “failed”; and “MTAKAACSDFLHFFRSWVSNPLRVAAIAPSGDSLARIMTSEIAALDGPIIELGPGTGVFTRALLARGVSEADLTLIEYGPEFITSLQARFPTARVLQMDAAHLAHADIFEGEPVGAVVSGLPLLSMSPRKIASILAGAFAYMRPGGAVYQFTYGPRCPVPRPILDRLGLKAVRIGGTVRNLPPASVYRISRRKPLELSRERFSYRSSAADVDDVAAFSNETGG”, with “failed”. Then “MTAKPAVVGGFILGALALGVAAIVLFGGQRLFTSTREVVVFFNESVAGLQVGAPVTFHGVPVGTVKTIALRVSTRDLSARIPVVLELQPDQISWEGEHLNGDDDTYQRLIAAGLRAQLAPQSIVTGQMRVDLDFKPGTSAALSGEPTDLPEIPAVASDLDELRDKVTELPLRDLVETAQKTLANVQALTSSLNTRIPTLTTSAEQSVAVATQTLVTTQEAVRQIQADASVTLKELSDLLADLHRQVDARGGELGKTLSAAERTARQAESLMISLNELAGPRARFRADLEAAARDLSASASSTRSFTRTLERDPSALLSGDTKR”, with “failed”; and “MTAPLHLDSLFPSLDAIPEQYRPDAPIEQRDYLVDGQLRHWDGPLAPVRSPVFLAEADGERQVILGSTPLLDADAALAALDAAVRAYDHGQGLWPNLRVAERIQHVERFLARMREQREAVVKLLMWEIGKNLKDSEKEFDRTCDYIVDTIEALKELDRHSSRFELEQGTLGQIRRVPLGVALCMGPYNYPLNETFTTLIPALIMGNTVVFKPAKFGVLLIRPLLEAFRDSFPPGVINVIYGRGRETVSALMASGKVDVFAFIGTHSGASDLKKLHPRPHRLRAALGLDAKNPGIVLPQVDLDNAVNEAVTGALSFNGQRCTALKILFVHESVLRPFLDKFSARLASLKPGMPWEPGVALTPLPEPGKVDYLEGLLNDALAKGARVVNAGGGEHRQSFFYPALLSPVSPDMRLYHEEQFGPLVPVVPYRELDEVIDYVLRSDYGQQLSLFGNDPAQIGRLVDAFANQVGRINVNAQCQRGPDSYPFNGRKNSAEGTLSVHDALRVFSIRTLVATRDTEANKTLVSEII”, with “failed”.

On to “MTAQIRLAEPADLNDDTLRARAVAAARGDQRFDVLITGGTLVDVVTGELRPADIGIVGALIASVHEPASRRDAAQVIDAGGAYVSPGLIDTHMHIESSMITPAAYAAAVVARGVTTIVWDPHEFGNVHGVDGVRWAAKAIENLPLRAILLAPSCVPSAPGLERGGADFDAAILADLLSWPEIGGIAEIMNMRGVIERDPRMSGIVQAGLAAEKLVCGHARGLKNADLNAFMAAGVSSDHELVSGEDLMAKLRAGLTIELRGSHDHLLPEFVAALNTLGHLPQTVTLCTDDVFPDDLLQGGGLDDVVRRLVRYGLKPEWALRAATLNAAQRLGRSDLGLIAAGRRADIVVFEDLNGFSARHVLASGRAVAEGGRMLVDIPTCDTTVLKGSMKLPLRMANDFLVKSQGAKVRLATIDRPRFTQWGETEADVKDGFVVPPEGATMISVTHRHGMAEPTTKTGFLTGWGRWNGAFATTVSHDSHNLTVFGGNAGDMALAANAVIGTGGGMAVASEGKVTAILPLPLSGLVSDAPLEEVARAFEDLREAVGKVVEWQPPYLVFKACFGATLACNIGPHQTDMGIADVLTGKVMESPVIEVLG”, for which the protein production entry is listed as “failed”.

With “MTARNILSYSYEEYVEKITAFHGYPAPGVLIGGFMVDLAVKNLPEGILYDAICETRTCLPDAVQLLTPCTFGNGWLTVLPMGLFAVSLYDKFTGEGVRVFLDVEKMGPWQEIRNWFLKLKTKKEQDSERLFKEIREAGPDILELRNVKLKPGFLEKKHKGKIVLCPQCREAYPAQDGELCLSCQGGSPYL”, the protein production entry is reported as “not failed”. On to “MTASFPTRVYLLRHAKAAWAAPGERDFDRGLNEAGFAEAEIIADLAADRRYRPDLILSSTAARCRQTTQAWQRAFNEGIDIVYIDEMYNARSETYLSLIAAQTEVQSVMLVGHNPTMEATLEAMIGEDLLHAALPSGFPTSGLAVLDQDDSAASGKNRWRLIDFLAPGK”, for which the protein production result is “not failed”. Turning to “MTASIFSGVIPALMTPCRQDRTPDFDALVRKGKELIADGMSAVVYCGSMGDWPLLTDEQRMEGVERLVKAGIPVIVGTGAVNTASAVAHAVHAQKVGAKGLMVIPRVLSRGSVIAAQKAHFKAILSAAPEIPAVIYNSPYYGFATRADLFFALRAEHKNLVGFKEFGGPADMRYAAENITSRDDEVTLMIGVDTAVVHGFVNCGATGAITGIGNVLPKEVIHLCKLSQAAAKGDADARARALELEQALAVLSSFDEGPDLVLYFKYMMVLKGDKEYTLHFNETDALTDSQRGYVEAQFKLFNSWYADWSKLPGAVQTCKAA”, the protein production entry is “not failed”. As to “MTASVTASVTAPETAPVPIVLAGARGHGRWHLDNIRRLQDRGLVRLAGICELTPLAEEELDGLGVPEQSADFGSLLDATGAAIAVICTPIPTHTDLALTAAERGVHLLLEKPPAPSFAEFRRMADGVAAAGVVCQIGFQSLGSGAVPGIRKLIAEGALGTVAGIGAAGAWARDEAYYRRAPWAGKRRLNGVDVIDGVLTNPLAHAVATALALDGSTRAEDVTDIETELLRANDIESDDTSCVRVTTKSGGRITVAATLCAEEPDEPYVLVHGDRGRITFWYKQDRVLVQRSGHGPQEIEYDRTDLLENLVGHLTHGAELLVTPESTGAFMKVVEAIRQAPDPVALPGDAWELIPGENRRVVRGVDGLVAAAADTLALYSELGASWALPNEVSSR”, the protein production result was “failed”. Then “MTATLQVTIVVGYLLVALAIGLLAYRVTERAAEDFYLASRTFGTAVLLFTVFATLLSAFTFFGGPDNAYAFGPEWILVMGLMDGLIFAILWYLIGYKQWLLGQRHGYVTLGEMFGDRFGSTGVRALVAVVSLFWLFPYVMLQQIGAGGALAALTDGVVPFWAGASLITGFMILYVVLAGMRGIAWTDTLQGAFMLCMVWAALVWVLVAVDGGVSTINAGLTESSPEFFALGSDFYTPGTMLTFAISIAFGVAMFPQVNQRFFTAASETVLKRSFALWPLLVLLLFVPAFLLGTWAQGLGLQADVGAGESILPILLDTYTPAWFAALVIAGAIAAMMSSSDSMLLSGSSYFTRDVYRPLVDDGITERQEDRLGRIGVAVFAIAALAASVWAEAEAFGAVAVGSVLVEIGDLAFGGFAQLTVPVLVALYWRGTTKQGLVAGILLPQAVYLAFNFLPATEVGSAMLFSETYLGWGISIYCLLLGLVATVVVSAATTKADSERPALFFESLRRG”, with “failed”; and “MTDAEYGLPRRSLLAGAAGAGAAFALPAGAAQAAPAASPQAGAERRHPRNWPDPEPYGAADTRADLWPREDNSFVLPLELRPRDQERGTVWMRDTYVNCFVVDGRPLYVATGTTRVPGLEAAGPWNDGIFVWLAPSLDGPWRLADTTGIRPGAERGKVWSPEFAGENRPGRTVVAPWQEYWHDEQFGKRGQAWAPELHYFRDTWYLVACMGDHSRKVGSFMLVSEGGVEGPYRLVEGNLDKPFGDSFIGGPKFIEPGAYHHIDGGLFSEGDDAWLVLHNDLYAKFRDDMEDIVTTTDLPRFRQTPYSPEPYLEGAYVFKYRGKYHLVHAAWDRTSVNADGTVRQAYDVPAAGRVQYQYDAIVAVADRFEGPYSKRYTAGVGAGHNNFFVDHRGGLWATYFLNPAAGYWSGASRVAESAVPGVVRLEWTGPAGGRLYVKRGSGGPGSGH”, with “failed”; and “MTDAPATPYAARTPVHEQHLDGFGTVRVLPLDPAADAAVVHGWVGEERAAFWGMNDLTRDQVAAVYAHMDTLDTHHAFLVVKDGEPAALLQTYDPAADRVSECYAAEPGDIGVHLLLAPAGAEGTRPGWTAALSGALMAYVLLGLDRTRIVVDPDVANEKAIARFLKQGFTAGPAVVLPEVDLPDVYLPEKKAQLAFLRREVAFGA”, with “failed”. Then “MTDEIISYQKAKLAKNLAISTASKWLFVHSSTGGSATNLSIAQYATLINGIQSAIKCQVILTAGKGERERAVELAEKLTDQNVVIYDKNDGLADFTRSLACADLFIAGSTGPLHIAGGLNIPTVGFYPSRLSATPRRWRPINQVDKHLAFCPPSGKQCEMDLTLISIEQALTSVIPFIKKMWQLSLEHHHHHH”, with “not failed”. For the sequence “MTDFPTSLTSPGNRCEGCQQSQPLGFDFSFAYQPIVDLRDHSVFAHEALVRGVNGEGAGTVLGQVNDSNRYRFDQRCRTQAITLAAQLGMQSHLSINFMPNAVYRPELCIRSTLEAARAQRFPLDRLIFETLESQHVDNYRHLTNILREYREFGFKTAIDDFGSGYSGLNLLADFQPDLIKLDMALVRDVDQDRVRQAIIRAIVTMCAELGVTVIAEGIESAGERDFLSDCGIYLMQGYWFAKPAFKALAEVPAAAWNS”, the protein production entry is “failed”. Consider “MTDKKDFAASEHNNNDNIHAEVVPRQGISIIWFVPFIALIFGLWLTAKVVSEQGTFITIEFDNGSGIIPNKTEIRYKGLVTGLVKKVVPSADLQRVIAEVEISKNFTDYLTENTRFWLVSADISLQGVSGLDTLISGSYITIMPDTNQEADSQDHFVALTEAPTLDMSTPGLHLTLHTDVLGSISENSPISFKQIPIGHVTGYHYKESSKKIGINIYIKPEFAHLVKENSLFYNTSGVQVTASLTGGVKVNTESLASIMAGGISVDNLSYQTELAPAKNGQTFPLHADFQSAEMGHEVELTLEWNSGIDHNAAILFQGLTIGVIESFSKIDPVSRKITATAKVNPRVVPYLTDQSQFYIVAPQISLAGLTNAKTLLTGNYLSIRPSLAGNPSNKFNVFSSKPPYKYTEPGLHLMLTSSDRSSLQIGSNVYYKQQVVGNIQAIETTAPERHLIHIHVQPKFSHYVNHSSRFYNNSGVKISANLLGVDIQAQSLQSILTGGIAFTSQNSTQESQKKLVKNGDSFSLYANNKLAEQNISFTLNYMASEHISSDTRLLYRGIEIGAIHQTKIQGNKQQLQLGLLPEYEHILKADTQFYIVKPNLSLSGASDTDALFGGTYITFNLGQGKAKNQFTLFSQPPVKLASSPGLQLSLSTDHANVATPGSAISYRGITIGQVDNVSLNKIDDEIKVNITIDEEHRGLLKSTSRFYNAGGMTISGGLSDFVVKTESIDAILRGGISFYNPEVLLPTSLITNTQVEELSNFTLFKHEEHAKDAGQTISIHFNDISGLKVNTKVIYQEQTLGTIERLIFTADKVGVTALVLLNDSGSQFARKGTKFWKIEPQIGLVGSKNVAALLDGAFIGLLPSHNVEAKLKNEFEALELAPTVEQLSYGLNIKLTTARLGSVRVGNPVLYRQIKVGKVIGIDLSATADQVNIFINIAKRYAPLVNGNSQFWNTSGINIEASIFSGINIDSESIETLIAGGIAFATPDIDENNDKEQNDETKSLPASFILHQDVDEDWLEWQPKIAINNQTTSAE”, for which the protein production entry is recorded as “failed”. For the sequence “MTDKTPWSLRSVGNPSPIEIAMMLLSLLSVIIVLVMTFGRLDKETYRLLFFIDTTICMIFMVNFFAGLFRARDKLFYLRHHWIDFIASIPAIEALRIARVFQILRVIRLIRMSRSFLIPLIKQRKQATLASLLVAMVTILTFASIIILIIESGTEGANIQTAEQAIWWALVTISTVGYGDFYPVSTAGHIVGGIVIVSGVSFFGVISGYMASVFVAPDESERQERQDAHKAEIKSELELALARMEENQRQMELNQAQMLTKIAELKQALEDKKG”, the protein production result is given as “failed”.
